Key:
[1] = biological target: cdc73_yeast CDC73 (UniProt Q06697)
[2] = biological target: rtf1_yeast RTF1 (UniProt P53064)
rtf1_yeast RTF1, sequence (P53064 whole entry): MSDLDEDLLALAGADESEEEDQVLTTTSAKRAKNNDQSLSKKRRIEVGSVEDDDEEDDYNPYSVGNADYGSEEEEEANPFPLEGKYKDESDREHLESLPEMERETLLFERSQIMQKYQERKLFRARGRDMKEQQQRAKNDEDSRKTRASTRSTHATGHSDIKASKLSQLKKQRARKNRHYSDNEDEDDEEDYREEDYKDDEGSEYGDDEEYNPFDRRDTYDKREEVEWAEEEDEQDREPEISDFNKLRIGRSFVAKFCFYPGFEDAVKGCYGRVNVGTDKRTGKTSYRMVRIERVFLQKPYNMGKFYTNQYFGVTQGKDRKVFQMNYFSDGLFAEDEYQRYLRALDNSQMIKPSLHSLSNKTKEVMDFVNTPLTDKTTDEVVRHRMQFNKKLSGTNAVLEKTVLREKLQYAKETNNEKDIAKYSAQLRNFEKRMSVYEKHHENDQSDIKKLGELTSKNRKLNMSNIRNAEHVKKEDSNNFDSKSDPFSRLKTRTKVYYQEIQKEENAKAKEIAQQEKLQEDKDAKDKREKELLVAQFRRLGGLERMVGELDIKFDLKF

cdc73_yeast CDC73, sequence (Q06697 whole entry): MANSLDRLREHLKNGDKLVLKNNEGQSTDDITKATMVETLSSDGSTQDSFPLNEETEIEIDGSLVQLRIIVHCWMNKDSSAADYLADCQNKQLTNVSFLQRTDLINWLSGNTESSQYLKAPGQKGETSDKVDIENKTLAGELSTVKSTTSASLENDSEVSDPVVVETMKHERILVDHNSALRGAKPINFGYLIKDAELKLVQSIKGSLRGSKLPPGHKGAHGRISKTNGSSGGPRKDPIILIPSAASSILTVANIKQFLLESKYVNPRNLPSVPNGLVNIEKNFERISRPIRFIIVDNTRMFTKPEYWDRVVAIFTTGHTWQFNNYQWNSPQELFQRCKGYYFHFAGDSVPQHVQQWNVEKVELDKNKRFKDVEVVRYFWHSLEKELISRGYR

effect of a mutation on the interaction [1] | effect of a mutation on the interaction [2] | Substance
decreasing interaction | disrupting interaction | DNA-directed RNA polymerase II subunit RPB1 (Saccharomyces cerevisiae), P04050 S1560D
decreasing interaction | disrupting interaction | DNA-directed RNA polymerase II subunit RPB1 (Saccharomyces cerevisiae), P04050 S1557D

— IntAct's records for PubMed 22796944
